Measured values published in patent publication US20240252635A1 (Genmab, published 2024).

Legend:
human CD37 [1] = target: T1, human CD37 (human (Homo sapiens), UniProt P11049 1-281); experiment: flow cytometry, Alexa-488 labeled antibody on B cells in human whole blood; average of 6 donors
T1 construct: Endogenous on Daudi cells, Raji cells and human blood B cells; also called Leukocyte Antigen CD37; GP52-40
T1 sequence: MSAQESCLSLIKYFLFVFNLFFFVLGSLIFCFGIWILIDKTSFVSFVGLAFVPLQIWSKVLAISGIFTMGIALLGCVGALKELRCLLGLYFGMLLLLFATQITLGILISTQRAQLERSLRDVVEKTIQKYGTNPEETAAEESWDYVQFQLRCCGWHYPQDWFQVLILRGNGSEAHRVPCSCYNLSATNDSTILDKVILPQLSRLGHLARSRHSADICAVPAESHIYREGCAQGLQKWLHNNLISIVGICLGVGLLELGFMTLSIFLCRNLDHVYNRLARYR
Method: (§1) Binding to human or cynomolgus monkey B cells was determined in a whole blood binding assay. Heparin-treated human blood from healthy volunteers was derived from UMC Utrecht (Utrecht, The Netherlands), hirudin-treated blood from cynomolgus monkeys was derived from Covance (Münster, Germany). Blood was aliquoted to wells of a 96-well round-bottom plate (Greiner Bio-one, cat. no. 65010; 35 μL/well). Red blood cells (RBC) were lysed by addition of 100 μL RBC lysis buffer (10 mM KHCO₃ [Sigma P9144], 0.1 mM EDTA [Fluka 03620] and […] NH₄CL [Sigma A5666]) and incubated on ice until RBC lysis was complete.
(§2) Cells were pelleted and washed twice in 150 μL FACS buffer and resuspended in 150 μL TO-PRO-3 (end concentration 0.2 μM; Molecular Probes, cat no. T3605). Samples were measured by flow cytometry using an LSRFortessa flow cytometer. Binding is expressed as geometric mean of A488 fluorescence intensity for viable TO-PRO-3⁻/CD14⁻/CD19⁺ B-cells (human) or viable TO-PRO-3⁻/CD14⁻/CD19⁺/CD20⁺ B-cells (cynomolgus monkey). Log-transformed data were analyzed using best-fit values of a non-linear dose-response fit in GraphPad PRISM.

cynomolgus monkey CD37 = target: T2, cynomolgus monkey CD37 (cynomolgus monkey (Macaca fascicularis), UniProt P11049 1-281 (human entry)); experiment: flow cytometry, Alexa-488 labeled antibody on B cells in cynomolgus monkey whole blood; average of 4 animals
T2 construct: also called mfCD37; cynomolgus CD37
T2 chain: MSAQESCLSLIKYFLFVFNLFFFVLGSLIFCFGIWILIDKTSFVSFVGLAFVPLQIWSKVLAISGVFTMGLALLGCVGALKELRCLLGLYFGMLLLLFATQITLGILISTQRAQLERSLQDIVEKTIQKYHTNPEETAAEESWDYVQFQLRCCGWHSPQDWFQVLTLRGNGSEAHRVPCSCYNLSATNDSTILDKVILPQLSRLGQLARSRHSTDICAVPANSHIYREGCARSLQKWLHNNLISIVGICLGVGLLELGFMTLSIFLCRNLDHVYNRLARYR
Method: as §1, §2

human CD37 [2] = target: T1, human CD37; experiment: flow cytometry on HEK293 cells expressing wild type CD37 or alanine mutants, Alexa488 antibody at 3 µg/mL
Method: The wild type CD37 and alanine mutants were expressed individually in FreeStyle HEK293 cells according to the manufacturer's instructions (Thermo Scientific). One day post transfection the cells were harvested. […] Cells were incubated for 1 hour at room temperature. Subsequently, cells were washed twice by adding 150 μL FACS buffer and removing the supernatant after centrifugation. Cells were resuspended in 20 μL fresh FACS buffer and stored at 4° C. until analysis by flow cytometry using an iQue screener (IntelliCyt). The entire experiment was performed 2 times.

B1: bsIgG1-016-H5L2-LC90S-F405L-E430Gx010-H5L2-K409R-E430G (bispecific antibody)
heavy 1: not shown
light 1: DVVMTQSPSTLSASVGDRVTITCQASQNIDSNLAWYQQKPGKAPKFLIYYASNLPFGVPSRFKGSGSGTEFTLTISSLQPDDFATYYCQSADVGSTYVAAFGGGTKVEIKRTVAAPSVFIFPPSDEQLKSGTASVVCLLNNFYPREAKVQWKVDNALQSGNSQESVTEQDSKDSTYSLSSTLTLSKADYEKHKVYACEVTHQGLSSPVTKSFNRGEC
heavy 2: not shown
light 2: AYDMTQSPSTLSASVGDRVTITCQASQNIIDYLAWYQQKPGKAPKLLIHKASTLASGVPSRFKGSGSGTEFTLTISSLQPDDFATYYCQQGYSNSNIDNTFGGGTKVEIKRTVAAPSVFIFPPSDEQLKSGTASVVCLLNNFYPREAKVQWKVDNALQSGNSQESVTEQDSKDSTYSLSSTLTLSKADYEKHKVYACEVTHQGLSSPVTKSFNRGEC
notes: also called bispecific CD37 antibody
EC50 (human CD37 [1]): 0.85 µg/mL
EC50 (cynomolgus monkey CD37): 0.63 µg/mL

B2: bsIgG1-016-H5L2-LC90S-F405L-E430Gxb12-K409R-E430G (bispecific antibody)
heavy 1: not shown
light 1: DVVMTQSPSTLSASVGDRVTITCQASQNIDSNLAWYQQKPGKAPKFLIYYASNLPFGVPSRFKGSGSGTEFTLTISSLQPDDFATYYCQSADVGSTYVAAFGGGTKVEIKRTVAAPSVFIFPPSDEQLKSGTASVVCLLNNFYPREAKVQWKVDNALQSGNSQESVTEQDSKDSTYSLSSTLTLSKADYEKHKVYACEVTHQGLSSPVTKSFNRGEC
heavy 2: not shown
light 2: EIVLTQSPGTLSLSPGERATFSCRSSHSIRSRRVAWYQHKPGQAPRLVIHGVSNRASGISDRFSGSGSGTDFTLTITRVEPEDFALYYCQVYGASSYTFGQGTKLERKRTVAAPSVFIFPPSDEQLKSGTASVVCLLNNFYPREAKVQWKVDNALQSGNSQESVTEQDSKDSTYSLSSTLTLSKADYEKHKVYACEVTHQGLSSPVTKSFNRGEC
notes: also called antibody 016
binding result (human CD37 [2]): binds
